Test results taken from the domain aggregation screens of Martell et al. (2025).

assay: soluble fraction after stress (log2 fold change); higher = more stays soluble; pooled small domains, quantitative proteomics; details: stress: 75 degC
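Note: 20 min heating vs room temperature control held 20 min.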

Sequence | soluble fraction (log2)
HMSPLALLTPRELDILRAMTAGASNKEIARQFAIAETTVKIHVQHILRKLDVTTRVHAAVMASESGL | -3.05
HMSPPALAVQRDGSNVQISWPGAEEGWRLESSAEPSGAAWDLIAQNPTPVGGRWTVSLTEPTGRRFYRLVK | -0.0804
HMSPSLVEAMRLRMYEMGLNQAKLSELLGVSPSRVSDYLTGRSEPTLKVARDISRKLNIDASIVLG | -1.68
HMSPSQFRSKSLLVEINFASRQMDGEILQGDYAGKRLSELTEAEVQELTAWLKQSDRESFVLLQAYLLRSG | -2.46
HMSPSSPNQILGQYPKTKNDIILSSGRYGPYLKYNKKNYSLGNNISVEKLSLEEAVKIIDLKDKK | -0.291
HMSPTDKATVNVYALNVRTGPGTNYKVLGSVIKGTELQVLGSSGKWLKVKYGNREAYVAGWLVK | -2.85
HMSPTEQEKIGLFIKKLREEKNLTQEAFASLLKTSQSAVARIESGNQNITIEQLMKIGEVLNHNIVSI | -0.212
HMSQDPLETYYPQWSAAVKQSNPDAEIIRDTDGKYYVEGMTKNRVAVIYENPHLVRLVNATTNVHVE | 0.0377
HMSQDTLIGRVGVIVIGQARTGSPAQVRVKDGFGQTHYVMAEPDSEGVLKQGEAVLLVSLEGNTFKAILNP | -2.41
HMSQDVLLKRSGDQIEVKITEVGEDYLKYKKKGFENGPDFKINTSDVFMVTFANGEKMMFEES | -0.033
HMSQEAKLAMPVTDLRLSARTLNALELANIRTVRDLVSHTEEQLLELRNFGETALAEVKEKLAALGLRLGM | 0.0588
HMSQESIMPNLVGSTEDEAKAIAVEYGFQLNVISRVNNSQYPAGVIIDQNVDEGVRIKAGYPVGVTIS | -0.237
HMSQIAENNQKYVGTIQKVLVEGTSKNNDDMLTGRTDSNKVVIFEGDKKLIGNMVELKIVSEHMWYLKGEL | -0.0812
HMSQISKLWRPSEDVTEILTRSGMDSEFLEGLIPEFIIYWSERADVLVSYNSKFIEHARLKWAQHSAEIKT | -4.48
HMSQLLHELLAHVLKDRIISGEWPAGSRIMSEHALQERYGVSRGTVRRALAQLVQEGLLVQRKGKGTFVTR | -2.59
HMSQLVTGVLRNLNDISEKIAAGKAVPEMLGRLENMQQMIANLKGNEGLIKSISILTRSAQDALR | -0.484
HMSQPLYWQIRRMVIDHDDANDVLQNTFIKAWSNIGSFRGDAKFSTWLYKIAVNESITFINKKKVQN | -0.44
HMSQPYFELAAADMEALRNALSTIREIESVVLSGKIFHVEVREDLDPGTMNKLAFERGITLTHLVKKKN | -2.89
HMSQRINLNSASIEDMQSLDISNEKIDSIIDYRNRYGNIHNIYELLKIPGITIGDIHSIRNAVTVEIPH | -0.104
HMSQSLSGWAAKDLEVKSGADASYRTVGRLPKGSKVSGKIINGYLHIEFDGSMRYVPVSGISKTE | -0.6
HMSQSYHLADRGQSLGTLDYQAVLVGLATGRLSPDTLSWQEGEAGWVALRQRPEFASGVSAVASL | 0.404
HMSRAHTELEEKLLTMLEENDMTLPMRVISNIASRIEGIIIPEEKILEVLKKSYDRYREHQMD | -0.267
HMSRARSRQTSMLEAVAGLGPARRRALLKQFGGLQGVLRAGIEDLSRAPGIGPALAQAIFEHLHPGA | -0.482
HMSREQARRFYFDTWAKHRASQPLTDLEKIALTVMLLHPEYHSLLDKPDHYVDKDYSPEAGQTNPFLHM | -1.72

Sequence | soluble fraction (log2)
HMSRIDRKGLTSQIVNHLSKNPGKNFTLKQFFRNLKLNTHPLKMLAVDVLNKLLDTNFITRNEDGEFFLKA | 0.154
HMSRLMIVTPDGRIMDDVPEFGEVRTTTDVNGRVLVLDRNNVVIGFEMTPREYRREFGRNPF | -1.12
HMSRQAPIGHRIRGRRKDIGMTQNALAKAAGISPSYLNLIEHNRRSIGGGLLMRIAAILDIHPHTL | -2.87
HMSRTLLVYVTGAVRQPGVYELPEGSRFFDAVKAAGDVLPYAVMEDINMAEPLSDGMKIHIPLDPEQ | -0.687
HMSRVFSPSELEIRHAQDVFQALEEAKRQGKGAVSLNGKMIDAPIVARAKLVLEAAAAIYGED | -0.379
HMSRVHHGFNISIARNRKGLKQAALADMLGISQQRLSQLENQRVVKDEILEKVSEATGVSVEDLKTIE | -0.08
HMSRVSVDGEEVNFEGEIPDDPSRIYELLMGALSEQSRVVVKFFVDGKDALLDEGFPSRYQMIEAESV | -0.0462
HMSRYAFEGNVVRLNQKDFDSWKALFTNIDLVSELTRLDIEFTHDKPKNWFSTASAKLNYQNKNAY | -2.51
HMSRYLLPYAFARTQQVLLEEKSGELTLWMHSGSNLGGISEVTRKYAVQHVTHEPMDALLNRISSAYAN | -3.34
HMSSAVKRALAELPENWRMIVYYRVVEGLSYAEIAKVLDIPDGSVMSGLHRGKKMLRGLLLEYAQQEGYD | -1.79
HMSSDDEAFKRELVGLIPHLRAFARTLTGDPTAADDLAQDAMMKAWDARASYQMGTNMKAWTFMILRNQFY | -2.53
HMSSDKVWSFEASGKQLQASYVAFENETVYLRASEDGSLLQFPLTDFGMKDQLVVLELYELSAKINRSN | -0.934
HMSSDLSNVVKIIDTLKHKKGALLPILHQIQREIGYIPLKTIDTIAKKLQQTPAEIHGVISFYHQFRTS | 0.0116
HMSSEASALRGWLQTSQYQGSVTLFANALNVPLKTVEDWVYGRSKPSLQHWSQLYEATGLPEYQQ | -0.387
HMSSFRDISGTVYVKASAANLRSEPNTSSLIVDTLYYGASLQRISTNDIWTKVKTGNGQIGFMDNSLFQT | -3.12
HMSSGSLLTEREIEILAEMAKGLTNKAIGEKLFISVATVKTHILNIYRKLEVSSRVTAVNKAKQMRL | -2.43
HMSSGTAYATDAVNVRSGPGTSYTVLGYLSRGEKVTITGTVSNGWTQIQLPGNRLGYVSSAYLSASYPS | -0.85
HMSSHNIALDQDVVVTQLKGKVYLVAADGSQKQLAEGDILPKDAVLITPEGASFKGGNQTFTLS | 0.103
HMSSIFTRIIAGEIPSYKVAEDENYYAFLDINPLTKGHTLVVPKMEVDYIFDLDDKTLAGMMLFAKKG | -0.129
HMSSKIKYSEFITMLDKGEVESVVLKSDTLTITLKHGTGVAAQTKTTTLMEDLSELTKRLEKAGIKDFDK | -1.38
HMSSLDTLTARETQILAEMAQGKNNAAIAAAVSVSERAVEKHTNSIFAKLGLSEEKDVNRRVMAVLLFLGR | -3.6
HMSSLEQVYPNPVSSILKLNSFIKNYKILNATGHEVLKGSGNTINVGKLPSGSYFLITSENYSIKFIK | -1.08
HMSSLSGVRRTLLDSLGMPPDASDEELADRREELRGSLDTAPQARRKWIEQQLARIDAITALDASG | 0.106
HMSSPEAAEVQRLLKDGQHVQALKIIDESLARNPKDPQMRFRRGVALSMLDRKNEALAVFQKLVED | -0.182

Sequence | soluble fraction (log2)
HMSSPRAIYSAIQKAVGEDMILYREDVQIILDKLDADLLVDDILEKMELDGTLVRQRDGTWLLL | -0.801
HMSSQVFLGQKNSIAKYDLNENKPIWTKEIKGTPLILSTWKDMLLIQIQTWVSYTHMLVKQENGQTVWE | 0.288
HMSSRLEIEITSKIDDLSHTWRAVGAKQPKGNIKSSLLPSGVKVGETFRVEADFLLDGIEIVSVLPP | -1.86
HMSSSLDQLTVREREILAQVSRGLSNKAIARELGISHDTVKLHVRHILSKLGFSSRVEAAVFAIEHRIG | -2.35
HMSSSMDAIAEIIRSIPRGDHLTAPEVYELAKQRGLKLSLSTVYRTLNKLKVVGDVITVSGDRGLRYESV | -0.336
HMSSTPEPPQAVLDLVNLREQARAGKDWTQSDAFRQQIAALGWTVKDTKDGPVVSLSPTTTE | 0.392
HMSSTSTMTVAEATIGRKVKHDKFGEGTIITVADVNGDKKLTIAFNQQGVKMLMLSMAKLEL | -3.36
HMSSVEVWINGKSSGLTSDNRAQILQQLPAESIERIEVIDNPSAKFSAEGSAGIINIVLKKD | 0.195
HMSSVRDNGDLELVPGDRIRHDDYGEGRVTAVTGVGSKRIAHAVFDSVGERKLLIKLSPIEKI | -0.0574
HMSSWMTKDGKIKPISKWAGVPMTSQQQADYAAGKVVELTNIPDKQGQLNTVYLKFNPEKQRPTTSLNDPR | -0.00849
HMSSYETVTLNGQRYFKYKVKSGEGLYAISRMFSTPIAEIIRHNPSSNAGLKNGQELLIPVN | -0.356
HMSSYMQMQLERLESLLQKNDLTDSDKYDIRQLVEDLDKVPESVSPNLVGAYMTIKNRYASVLKTVL | 0.0189
HMSTANISIEQAKEIALNHANLTSNQVIFSRTELDYDNGIQKYEVEFYYNNREYSYEINANTGDILGYEQ | -0.722
HMSTANIVVPDVKGKTFEEAKKAIEAEGLTAKAEGDESGVVQKTSPSYGVSVESGSEVTLTLVKSDD | 0.494
HMSTDNINYKNILIASLLIHAAKIDENYTENEKNIIKKALIELDEIDSKKADEIMILAEKKE | -0.265
HMSTGYEMVREVANQGSFSKAANSLGVSGPAVSKQVKSLEERLGLVLFHRTTRAVSLTQAGRQLVDVLN | 0.114
HMSTIKEKIIQYLDFKGISKYDFYQKTGVSNGVLSQKSGMSEDNIMRFLSYYDDINTDWLFYGKGEMIKT | -2.06
HMSTKLLEVNIFDDSKWVNKTIMDSDIPEDILIVMIKRGDEVIVPKGSTIINKGDILVLSANNFDNLLN | -2.45
HMSTMTEQEAFGLWERINDFIARTGNEPNRNSNDAHEVRMAEALNFIRIKVAEQRNSQSNSEAQNN | -0.263
HMSTNDIFISGDKLVLKNTTGQMDVFDMAGRKVLSSTNNVSEMNVSSLPKGVYVVSASIGGSKMKAKVYK | 0.536
HMSTQGRRIEILRHLTQTKKKADVNFVELGRTFGTSDTTIRKDLDWLIKNEYWENHGEWKPTQAGLNMI | 0.0518
HMSTRKAFVNGDGVRLRSGPGTNHSIRASLTKGQTVFVTGTKDGWASVSVQGGASGWVSADLLKYE | 0.59
